From publication PMC3290555

Key:
[1] = biological target: N-terminal domain of murine CNPase (residues -1-160) (mouse); assay: SEC; Superdex 75 10/300 GL; 20 mM Na-HEPES pH 8, 200 mM NaCl, 1 mM DTT; 250 µl at 1.7 mg/ml injected; molecular weight markers run under the same conditions
[2] = biological target: full-length CNPase construct (residues -1-378), mouse 2',3'-cyclic nucleotide 3'-phosphodiesterase lacking the 22-residue C-terminal tail (mouse); assay: SEC-MALS; Sephadex S-200 column with online light scattering and refractive index detectors; 20 mM Bis-Tris-HCl pH 5.5, 300 mM NaCl, 1% glycerol, 1 mM DTT; monomer-dimer equilibrium

Work on “N-terminal domain of murine CNPase (residues -1-160) (domain or fragment)” yielded a stoichiometry N [1] of 2.

Substance “full-length CNPase construct (residues -1-378), mouse 2',3'-cyclic nucleotide 3'-phosphodiesterase lacking the 22-residue C-terminal tail (enzyme)” has a stoichiometry N [2] of 2.
